Measured values: US20190367586A1 (VANDERBILT UNIVERSITY, published 2019)
Where a chain is given by its changes, count along the chain named.

B1: hRSV97 (antibody, V domains shown)
VH: EVQLVESGGTLVQPGRSLRLSCAASGFNFEEYAMHWVRQVPGKGLEWVARINWNGGIIGYADSVKGRFTISRDNAKKSLYLQMNSLRTDDSALYYCGKDVFWAVAGTGGPIDSWGQGTLVTVSS
VL: DIVMTQSPSSLSASIGDRVTISCRASRDISNYLAWYQQKSGKVPKLLIYAASTLESGVPSRFSGSGSGTDFTLTISSLQPEDVATYYCQNYNSAQMCSFGQGPSLEIK
B2: motavizumab (antibody, V domains shown)
VH: QVTLRESGPALVKPTQTLTLTCTFSGFSLSTAGMSVGWIRQPPGKALEWLADIWWDDKKHYNPSLKDRLTISKDTSKNQVVLKVTNMDPADTATYYCARDMIFNFYFDVWGQGTTVTVSS
VL: DIQMTQSPSTLSASVGDRVTITCSASSRVGYMHWYQQKPGKAPKLLIYDTSKLASGVPSRFSGSGSGTEFTLTISSLQPDDFATYYCFQGSGYPFTFGGGTKVEIK
B3: palivizumab (antibody, V domains shown)
VH: B2 VH with A32S, H60D, D67S, D100S, F103T, F105W, Q112A
VL: B2 VL with S24K, A25C, S26Q, S27L, R28S, V103L
B4: hRSV12 (antibody, V domains shown)
VH: QVQLVQSGAEVKKPGTSVRVSCKTSGYNFMNYGIYWVRQAPGQGLEWVGWISAYNGQTDRAQKFQGRVTMTTDISTNTGYMDLRSLRSDDTAVYFCARGPPVIAAVSLEYWGRGTLVTVSS
VL: EVVMTQSPLSLPVTLGQPASISCKSSQSLVHSNGDTYLNWFQQRPGQSPRRLIYKVSNRDSGVPDRFSGSGSGTDFTLKISRVETEDVGVYYCMQATHWPGSFGQGTKLEIK
B5: AM14 (antibody, V domains shown)
VH: EVQLVESGGGVVQPGRSLRLSCAASGFSFSHYAMHWVRQAPGKGLEWVAVISYDGENTYYADSVKGRFSISRDNSKNTVSLQMNSLRPEDTALYYCARDRIVDDYYYYGMDVWGQGATVTVSS
VL: DIQMTQSPSSLSASVGDRVTITCQASQDIKKYLNWYHQKPGKVPELLMHDASNLETGVPSRFSGRGSGTDFTLTISSLQPEDIGTYYCQQYDNLPPLTFGGGTKVEIKR
B6: hRSV75 (antibody, V domains shown)
VH: EVQLVESGGGLVKPGGSLRLSCAASGFTFRSYSMNWVRQAPGKGLEWVSSITSSSSYIDYADSVKGRFTISRDNAKNSLYLQMNSLRAEDTAVYYCARAYCGGDCSVDHFQHWGQGTLVTVSS
VL: QSVLTQPPSVSGAPGQRVTISCTGSSSNIGAGYDVHWYQHLPGTAPKLLIYVNSNRPSGVPDRFSASKSGTSASLAITGLQAEDEADYYCQSYDKSLSGFYVFGTGTKVTVL
B7: hRSV7 (antibody, V domains shown)
VH: EVQLVESGGGLVQPGGSLRLSCAASGFTFRNYAMSWVRQAPGKGLEWVSDISSGGDTTYYAESLKGRITISRDNSKNTLYLQMNSLRAEDAAIYFCAKHLLSPMYVNTDVFPDWYFEIWGRGTLVTVSS
VL: SYELTQPPSVSVSPGQTARITCSGDGLPKKYAYWYQQKSGQAPVLVIYDDSKRPSGIPERFSGTSSGTMATLIISGAQVEDEADYYCYSRHNSAYQRVFGAGTQLTVL
B8: hRSV61 (antibody, V domains shown)
VH: QVQLVQSGAELKKPGASVKVSCKASGYTFTNHGITWVRQAPGQGLEWMSWISGYNGNTQYAQKFQGRVTMTTDTSTRTAYMELRSLTSDDTAVYYCARDNGVVVGPPDYWGQGTLVTVSS
VL: DIQMTQSPSTLSASVGDRVTISCRASQSISSWLAWYQQKPGKPPKLLIYKASGLQTGVPSRFSGSGSGTEFTLTISSLQPDDFATYYCQYYHSLSAFGQGTKVEIK
B9: hRSV139 (antibody, V domains shown)
VH: QVQLVQSGAEVKKPGASVKVSCKASGYVFSNYGISWVRQAPGQGLEWMGWISAYNGNTEFAQKFQGRITMTTDTSTNTAYLEVRGLRSDDTAVYYCSRQSGVSGVPEFQDWGQGTLVTVSS
VL: QAVVTQSPLSLPVTLGQPASISCRSSQSLVYSNGDTYLSWFQQRPGQSPRRLIYKVSNRDSGVPDRFSASGSGTDFTLKISRVEAEDVGVYYCMQGTHWPPPTFGQGTRLEIK
B10: hRSV90 (antibody, V domains shown)
VH: EVQLVESGGGLVQPRRSLRLSCAASGFTFDDYTIHWVRQAPGKGLEWVSGITWNSGYIGYADSVKGRFTISRDNARNSLYLQMNSLRAEDTALYYCVRDAYVSGSDYYYYGLDVWGRGTLVTVSS
VL: EIVMTSSPATLSVSPGERATLFCRASQSVISNLAWYQQKSGQAPRLLIYGASTRATGIPARFSGSGSGTEFTLTISSLQSEDFAVYFCQQYNNWPLTFGGGTQVNVQ
notes: also called mAb hRSV90
B11: hRSV106 (antibody, V domains shown)
VH: QITLKESGPTLVKPTQTLTLTCTFSGFSLTTRGVGVAWIRQPPGKALEWLALIYWDDDKRYRSSPKGRLTITKDNSKNQVVLIMTNMDPVDTATYYCAHAMDDSGSYYVGLSKDPHFDSWGHGTLVTVSS
VL: SYELTQPPSVSVSPGQTASITCSGDVLFNKFASWYQQKPGQSPVLVIYQDSKRPSGIPERFSGSNSGNTATLTIRGTQAMDEADYYCQARGSTAAHVIFGGGTKVTVL
B12: hRSV141 (antibody, V domains shown)
VH: QVQLVQSGAEVKKPGASVKVSCKASGYTFTNYYMHWVRQAPGQGLEWMGWINPNRGGTNYAQKFQGRVTMTLDTSISTAYIELSRLRSDDTAVYYCARDLTLGTDYWGQGTLVTVSS
VL: QAVVTQPASVFGFPGQSITISCTGTSSDVGGYNYVSWYQQRPGKAPKLMIYEVSNRPSGVSNRFSGSKSGNTASLTISGLQAEDEADYYCNSYTSSNSYVFGTGTKVTVL
B13: D25 (antibody, V domains shown)
VH: QVQLVQSGAEVKKPGSSVMVSCQASGGPLRNYIINWLRQAPGQGPEWMGGIIPVLGTVHYAPKFQGRVTITADESTDTAYIHLISLRSEDTAMYYCATETALVVSTTYLPHYFDNWGQGTLVTVSS
VL: DIQMTQSPSSLSAAVGDRVTITCQASQDIVNYLNWYQQKPGKAPKLLIYVASNLETGVPSRFSGSGSGTDFSLTISSLQPEDVATYYCQQYDNLPLTFGGGTKVEIKR
B14: hRSV20 (antibody, V domains shown)
VH: QVQLVESGGGLVQPGRSLRLSCAASGFTFDDYAMHWVRQAPGRGLEWVSGISWNSGIAVYADSVKGRFTISRDNAKKSLYLQINSLRAEDTALYYCVKDNYASGSYSSYYYYYGLDLWGQGTLVTVSS
VL: EIVMTQSPATLSVSPGERATLSCRASQSIISNLAWYQQKPGQAPRLLIYGVSTRATGIPARFSGSGSDTEFTLSISSLQSEDFAVYYCQQYNNWPITFGQGTRLEIK

molecular target: F protein of RSV strain Long (infectious virus) (human respiratory syncytial virus …, UniProt P12568 26-574); experiment: cell-based or functional assay

Going from B1 to B2, the “Neutralization IC50, plaque-reduction assay” value falls from 0.106 mg/L to 0.009 mg/L (12-fold).

Going from B3 to B4, the “Neutralization IC50, plaque-reduction assay” value falls from 0.212 mg/L to 0.016 mg/L (13-fold).

First: B5
Second: B6
The “Neutralization IC50, plaque-reduction assay” value of the first is 2.3-fold higher: 0.043 mg/L for the first, 0.019 mg/L for the second.

B7 and B8 are within 1.5-fold of each other in “Neutralization IC50, plaque-reduction assay” value: 0.062 mg/L for the first, 0.054 mg/L for the second.

Going from B9 to B10, the “Neutralization IC50, plaque-reduction assay” value falls from 0.07 mg/L to 0.035 mg/L (2-fold).

Compared with B11, B12 is 1.5-fold lower in “Neutralization IC50, plaque-reduction assay” value: 0.043 mg/L for the first, 0.028 mg/L for the second.

Going from B13 to B14, the “Neutralization IC50, plaque-reduction assay” value rises from 0.009 mg/L to 0.014 mg/L (1.6-fold).

molecular target: F protein of RSV strain A2 (infectious virus) (human respiratory syncytial virus …, UniProt P03420 26-574); experiment: cell-based or functional assay

Compared with B2, B3 is 89-fold higher in “Neutralization IC50, plaque-reduction assay” value: 0.123 mg/L for the first, 11 mg/L for the second.

molecular target: F protein of RSV strain 18537 B (infectious virus) (human respiratory syncytial virus …, UniProt P13843 26-574); experiment: cell-based or functional assay

B1 and B2 are within 1.5-fold of each other in “Neutralization IC50, plaque-reduction assay” value: 0.065 mg/L for the first, 0.091 mg/L for the second.

First: B3
Second: B4
The “Neutralization IC50, plaque-reduction assay” value of the first is 2.9-fold higher: 1.27 mg/L for the first, 0.443 mg/L for the second.

Going from B6 to B7, the “Neutralization IC50, plaque-reduction assay” value falls from 0.062 mg/L to 0.022 mg/L (2.8-fold).

Going from B8 to B9, the “Neutralization IC50, plaque-reduction assay” value rises from 0.09 mg/L to 0.216 mg/L (2.4-fold).

Going from B10 to B11, the “Neutralization IC50, plaque-reduction assay” value rises from 0.045 mg/L to 0.114 mg/L (2.5-fold).

Compared with B12, B13 is higher in “Neutralization IC50, plaque-reduction assay” value: 0.053 mg/L for the first, greater than 1 mg/L for the second.

With B14 the “Neutralization IC50, plaque-reduction assay” value was 0.114 mg/L.

molecular target: F protein of RSV strain A2 (infectious virus) (human respiratory syncytial virus …, UniProt P03420 26-574); experiment: cell-based or functional assay; remark: another data set of the same source

Compared with B1, B4 is 16-fold lower in “Neutralization IC50, plaque-reduction assay” value: 2.23 mg/L for the first, 0.141 mg/L for the second.

First: B6
Second: B7
The “Neutralization IC50, plaque-reduction assay” value of the first is 10-fold lower: 0.129 mg/L for the first, 1.33 mg/L for the second.

Going from B8 to B9, the “Neutralization IC50, plaque-reduction assay” value rises from 0.276 mg/L to 0.621 mg/L (2.2-fold).

First: B10
Second: B11
The “Neutralization IC50, plaque-reduction assay” value of the first is 30-fold lower: 0.015 mg/L for the first, 0.451 mg/L for the second.

First: B12
Second: B14
The “Neutralization IC50, plaque-reduction assay” value of the first is 18-fold higher: 0.626 mg/L for the first, 0.034 mg/L for the second.

molecular target: T1, RSV strain A2 post-fusion F (human respiratory syncytial virus …, UniProt P03420 26-109; P03420 137-524); experiment: ELISA, F protein coated
T1 construct: extracellular domain

Going from B2 to B3, the EC50 falls from 0.083 mg/L to 0.024 mg/L (3.5-fold).

Binder B4 has an EC50 of 0.285 mg/L.

molecular target: T2, RSV strain A2 pre-fusion F protein (SC-TM) (human respiratory syncytial virus …, UniProt P03420 26-513); experiment: ELISA, F protein coated
T2 construct: not shown: fold-on trimerization domain and polyhistidine tag

First: B1
Second: B4
The EC50 of the first is 1.9-fold higher: 0.053 mg/L for the first, 0.028 mg/L for the second.

First: B6
Second: B8
The EC50 of the first is 1.6-fold higher: 0.044 mg/L for the first, 0.027 mg/L for the second.

B9 and B10 are within 1.5-fold of each other in EC50: 0.04 mg/L for the first, 0.028 mg/L for the second.

First: B11
Second: B12
The EC50 of the first is 1.6-fold higher: 0.046 mg/L for the first, 0.029 mg/L for the second.

molecular target: RSV strain A2 pre-fusion F protein (SC-TM) (human respiratory syncytial virus …, UniProt P03420 26-513); experiment: ELISA, F protein coated

Binder B2 has an EC50 of 0.017 mg/L.

molecular target: T3, RSV strain 18537 post-fusion F (human respiratory syncytial virus …, UniProt P13843 26-109; P13843 137-524); experiment: ELISA, F protein coated
T3 construct: extracellular domain; also called RSV B 18537 (post)

B2 and B3 are within 1.5-fold of each other in EC50: 0.084 mg/L for the first, 0.081 mg/L for the second.

Work on B5 yielded an EC50 of 0.198 mg/L.
